We go through three sequences from paper PMC11784345.

For this data set, the system named is MBP-His8-MilO (Streptoverticillium rimofaciens (Streptomyces rimofaciens)). The data set is described as follows: fluorescence polarization. The note with it: EMSA: 20 mM Tris-HCl pH 8.0, 100 mM KCl, 2.5 mM MgCl2, 0.2 mM DTT, 10% glycerol, salmon sperm DNA, 30 C 10 min (Fig 5 legend: room temperature); FP: 20 mM Tris ….
On to “CACTATTTAATCGTGTCGCTCGGTGGTGTCCGCCGGTGCCCCGG (double strand) [OBSM1]”, for which the binding signal (fold decrease in affinity vs OBSWT) is 3. “TGTCGCCCGGTCGTATTATCTAACGGTGTCCGCCGGTGCCCCGG (double strand) [OBSM2]” came in with a binding signal (fold decrease in affinity vs OBSWT) of 3. In turn, “TGTCGCCCGGTCGTGTCGCTCGGTGGCGCCTATCAACGCCCCGG (double strand) [OBSM3]” showed a binding signal (fold decrease in affinity vs OBSWT) of 3.
